From article PMC1948075 (The EMBO Journal, 2007)
Ends that are not written are not given here.

Target: T1, GST-IgFLNa21 (amino acids 2236–2329) (human, UniProt P21333 2236-2329)
T1 sequence (looked up): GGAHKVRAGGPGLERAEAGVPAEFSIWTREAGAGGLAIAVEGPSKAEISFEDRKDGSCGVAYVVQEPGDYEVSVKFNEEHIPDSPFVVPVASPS
Experiment: pull-down

Kd: 700 ± 100 nM
B1: recombinant His-tagged integrin β7 cytoplasmic tail model protein (domain or fragment, UniProt P26010 747-798, looked up)
chain: RLSVEIYDRREYSRFEKEQQQLNWKQDSNPLYKSAITTTINPRFQEADSPTL
modifications: also: His-tagged, tag place not given here
